Test results as given in publication PMC9968969.

System: [H][C@@]12COP(=O)(O)O[C@@]1([H])[C@@H](O)[C@H](n1cnc3c(=O)[nH]c(N)nc31)O2
Assay: purified protein
Conditions: […] MgCl2 in the reaction buffer catalytic site

PDE5A (Homo sapiens) gave a Km of 3.87 ± 0.12 µM.
